# Experimental data as given in US20060183194A1 (Genentech, published 2006).
# B1: HRG11: HRG-β1 177-230 displayed on phage, GGGSGGG linker to pIII 247 (ligand, phage M13)
# chain: SHLVKCAEKEKTFCVNGGECFMVKDLSNPSRYLCKCPNEFTGDRCQNYVMASFYGGGSGGGGGSGGGSGSGDFDYEKMANANKGAMTENADENALQSDAKGKLDSVATDYGAAIDGFIGDVSGLANGNGATGDFAGSNSQMAQVGDGDNSPLMNNFRQYLPSLPQSVECRPFVFSAGKPYEFSIDCDKINLFRGVFAFLLYVATFMYVFSTFANILRNKES
# notes: range 247-C-terminus; Monovalent phage display; also called pHRG11-g3
# B2: HRG7: HRG-β1 177-228 displayed on phage, fused to pIII 247 (ligand, phage M13)
# chain: SHLVKCAEKEKTFCVNGGECFMVKDLSNPSRYLCKCPNEFTGDRCQNYVMASGGSGGGSGSGDFDYEKMANANKGAMTENADENALQSDAKGKLDSVATDYGAAIDGFIGDVSGLANGNGATGDFAGSNSQMAQVGDGDNSPLMNNFRQYLPSLPQSVECRPFVFSAGKPYEFSIDCDKINLFRGVFAFLLYVATFMYVFSTFANILRNKES
# notes: range 247-C-terminus
# B3: HRG6: HRG-β1 177-227 displayed on phage, fused to pIII 247 (ligand, phage M13)
# chain: SHLVKCAEKEKTFCVNGGECFMVKDLSNPSRYLCKCPNEFTGDRCQNYVMAGGSGGGSGSGDFDYEKMANANKGAMTENADENALQSDAKGKLDSVATDYGAAIDGFIGDVSGLANGNGATGDFAGSNSQMAQVGDGDNSPLMNNFRQYLPSLPQSVECRPFVFSAGKPYEFSIDCDKINLFRGVFAFLLYVATFMYVFSTFANILRNKES
# notes: range 247-C-terminus; also called pHRG6-g3
# B4: HRG5: HRG-β1 147-244 displayed on phage, fused to pIII 247 (ligand, phage M13)
# chain: YVSSESPIRISVSTEGANTSSSTSTSTTGTSHLVKCAEKEKTFCVNGGECFMVKDLSNPSRYLCKCPNEFTGDRCQNYVMASFYKHLGIEFMEAEELYGGSGGGSGSGDFDYEKMANANKGAMTENADENALQSDAKGKLDSVATDYGAAIDGFIGDVSGLANGNGATGDFAGSNSQMAQVGDGDNSPLMNNFRQYLPSLPQSVECRPFVFSAGKPYEFSIDCDKINLFRGVFAFLLYVATFMYVFSTFANILRNKES
# notes: range 247-C-terminus; Monovalent phage display; also called pHRG5-g3
# B5: HRG4: HRG-β1 147-227 displayed on phage, fused to pIII 247 (ligand, phage M13)
# chain: YVSSESPIRISVSTEGANTSSSTSTSTTGTSHLVKCAEKEKTFCVNGGECFMVKDLSNPSRYLCKCPNEFTGDRCQNYVMAGGSGGGSGSGDFDYEKMANANKGAMTENADENALQSDAKGKLDSVATDYGAAIDGFIGDVSGLANGNGATGDFAGSNSQMAQVGDGDNSPLMNNFRQYLPSLPQSVECRPFVFSAGKPYEFSIDCDKINLFRGVFAFLLYVATFMYVFSTFANILRNKES
# notes: range 247-C-terminus; Monovalent phage display; also called pHRG4-g3
# Target: T1, ErbB-2/3 receptor-Ig fusion (human, UniProt P04626 23-652; P21860 20-643)
# T1 construct: extracellular domain;range 224-C-terminus; Co-expressed in HEK-293; also called ErbB-2/3-Ig; 2/3-heterodimer; not shown: human IgG heavy chain constant region from His224 (hinge) on
# Experiment: phage ELISA; soluble ErbB-2/3-Ig competes phage off plate-bound ErbB-2/3-Ig
# Method: Microtiter plates (Nunc Maxisorp™ 96-well plates, Inter Med, Denmark) for phage ELISA were prepared as follows. The wells were precoated overnight with 0.5 μg of rabbit anti-human IgG (Fc gamma fragment-specific) antibodies (Jackson Immunoresearch, West Grove, Pa.) in 100 μL 50 mM NaCO₃ (pH 9.6). The wells were blocked for 30 minutes (min) with 200 μL PBS containing 0.1% bovine serum albumin (BSA) and rinsed with wash buffer (PBS containing 0.05% Tween 20™). The wells were then coated with 0.1 μg ErbB-2/3-Ig in binding buffer (PBS, 0.1% BSA, 0.05% Tween 20™) for 1 h, and washed again.
# Serial dilutions of soluble ErbB-2/3-Ig (competitor) and a concentration of phage predetermined to give 60% saturation (without competitor) were added to the wells in 100 μL binding buffer. Following incubation for 2 h at room temperature, plates were washed extensively and treated with a 1:900 dilution of anti-M13 horseradish peroxidase conjugate (Pharmacia, Piscataway, N.J.) for 20 min. The amount of phage binding was determined by assaying horseradish peroxidase activity using o-phenylenediamine dihydrochloride) substrate solution (Sigma Chemical Company, St. Louis, Mo.). EC₅₀ values were calculated as the concentration of soluble ErbB-2/3-Ig required to compete half of the phage off the plate.
row,Binder,EC50 [nM]
1,B1,19
2,B2,42
3,B3,40
4,B4,4.7
5,B5,38
